{
  "source": "paper PMC5669500",
  "about": "“Scaffolding the cup-shaped double membrane in autophagy” (PLoS Computational Biology, 2017)",
  "proteins": {"B1": {"name": "Atg17, wild type (natural protein, Saccharomyces cerevisiae, UniProt Q06410 1-417, looked up)", "chain": "MNEADVTKFVNNARKTLTDAQLLCSSANLRIVDIKKKLSSWQLSISKLNFLIVGLRQQGKFLYTILKEGIGTKLIQKQWNQAVLVVLVDEMKYWQYEITSKVQRLDGIVNELSISEKDDTDPSKLGDYISRDNVNLLNDKLKEVPVIERQIENIKLQYENMVRKVNKELIDTKLTDVTQKFQSKFGIDNLMETNVAEQFSRELTDLEKDLAEIMNSLTQHFDKTLLLQDKKIDNDEREELFKVVQGDDKELYNIFKTLHEVIDDVDKTILNLGQFLQAKIKEKTELHSEVSEIINDFNRNLEYLLIFKDISNLIDSFKNSCTQDIQTTKELCEFYDNFEESYGNLVLEAKRRKDVANRMKTILKDCEKQLQNLDAQDQEERQNFIAENGTYLPETIWPGKIDDFSSLYTLNYNVKNP", "notes": "Atg17, Saccharomyces cerevisiae; The Atg17 chain of m1; source: E. coli BL21 (DE3), co-expressed with Atg31 and His6-Atg29 from pST39, purified (Ni-NTA, Superose 6)"}, "B2": {"name": "Atg17 mutant M4 (K164D/K173D/R299D) (natural protein, Saccharomyces cerevisiae, UniProt Q06410 1-417, looked up)", "chain": "B1 chain with K164D, K173D, R299D", "notes": "Atg17, Saccharomyces cerevisiae; The Atg17 chain of m5; source: E. coli BL21 (DE3), co-expressed with Atg31 and His6-Atg29 from pST39, purified (Ni-NTA, Superose 6)"}, "B3": {"name": "Atg17 mutant M2 (K318D/K329D/Y93E/W94E) (natural protein, Saccharomyces cerevisiae, UniProt Q06410 1-417, looked up)", "chain": "B1 chain with Y93E, W94E, K318D, K329D", "notes": "Atg17, Saccharomyces cerevisiae; The Atg17 chain of m3; source: E. coli BL21 (DE3), co-expressed with Atg31 and His6-Atg29 from pST39, purified (Ni-NTA, Superose 6)"}, "B4": {"name": "Atg17 mutant M3 (K8D/R14D/K249D) (natural protein, Saccharomyces cerevisiae, UniProt Q06410 1-417, looked up)", "chain": "B1 chain with K8D, R14D, K249D", "notes": "Atg17, Saccharomyces cerevisiae; The Atg17 chain of m4; source: E. coli BL21 (DE3), co-expressed with Atg31 and His6-Atg29 from pST39, purified (Ni-NTA, Superose 6)"}, "B5": {"name": "Atg17 mutant M1 (K318D/Q326D/K329D) (natural protein, Saccharomyces cerevisiae, UniProt Q06410 1-417, looked up)", "chain": "B1 chain with K318D, Q326D, K329D", "notes": "Atg17, Saccharomyces cerevisiae; The Atg17 chain of m2; source: E. coli BL21 (DE3), co-expressed with Atg31 and His6-Atg29 from pST39, purified (Ni-NTA, Superose 6)"}, "B6": {"name": "Atg17 mutant M5 (K92D/L141D) (natural protein, Saccharomyces cerevisiae, UniProt Q06410 1-417, looked up)", "chain": "B1 chain with K92D, L141D", "notes": "Atg17, Saccharomyces cerevisiae; The Atg17 chain of m6; source: E. coli BL21 (DE3), co-expressed with Atg31 and His6-Atg29 from pST39, purified (Ni-NTA, Superose 6)"}},
  "target": "the molecule itself",
  "assay": "SEC; ternary complex co-expressed in E. coli, captured on Ni-NTA by His6-Atg29, then Superose 6 10/300GL in 20 mM Tris pH 8, 200 mM NaCl, 0.1 mM TCEP; peak fractions analysed by SDS-PAGE",
  "note": "Changes are numbered by the printed parent chain. Names and notes keep the numbering of the source.",
  "data": [
    {"protein": "B1", "values": [
      {"measurement": "binding result", "value": "binds"}
    ]},
    {"protein": "B2", "values": [
      {"measurement": "binding result", "value": "binds"}
    ]},
    {"protein": "B3", "values": [
      {"measurement": "binding result", "value": "binds"}
    ]},
    {"protein": "B4", "values": [
      {"measurement": "binding result", "value": "binds"}
    ]},
    {"protein": "B5", "values": [
      {"measurement": "binding result", "value": "binds"}
    ]},
    {"protein": "B6", "values": [
      {"measurement": "binding result", "value": "binds"}
    ]}
  ]
}
